Data taken from US20220233667A1 (OXFORD UNIVERSITY INNOVATION, published 2022).

T1: PfRH5Nt: amino acids F25-K140 of PfRH5 (3D7) with C-terminal CD4d3+4, biotin acceptor peptide and His6 tags (Plasmodium falciparum (3D7))
T1 construct: also called recombinant PfRH5Nt
T1 chain: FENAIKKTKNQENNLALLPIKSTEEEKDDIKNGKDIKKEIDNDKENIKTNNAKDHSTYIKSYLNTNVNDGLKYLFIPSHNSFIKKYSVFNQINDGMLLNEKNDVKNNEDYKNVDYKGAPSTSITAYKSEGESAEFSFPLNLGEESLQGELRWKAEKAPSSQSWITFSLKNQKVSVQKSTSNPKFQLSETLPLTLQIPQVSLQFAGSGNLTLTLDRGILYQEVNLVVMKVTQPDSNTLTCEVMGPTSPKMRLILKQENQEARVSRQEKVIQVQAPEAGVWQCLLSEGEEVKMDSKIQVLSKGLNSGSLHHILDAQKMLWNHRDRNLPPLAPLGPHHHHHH


Biological target: T1, PfRH5Nt: amino acids F25-K140 of PfRH5 …
Experiment: ELISA on coated PfRH5Nt

Row | Binder | binding result
1 | R5.011 (antibody, V domains shown, also called mAb11) VH: EVQLVQSGSDLKKPGASVKVSCKASGYTFTSYAMNWVRQAPGQGLEWVGWINTNTGNPTYAQGFTGRFVFSLDTSVSTAYLQISSLKAEDTAVYYCARESPNYYDSSGYYSGYYFDYWGQGTLVTVSS VL: SYELTQPPSVSVAPGQTATITCGGKNIGSKSVHWYQQKPGQAPVLVVYDDSDRPSGIPERFSGSNSGNTATLTISRVEAGDEADYYCQVWDSSSDHRVFGGGTKLTVLG | no binding (tested: 1000 ng/mL mAb)
2 | R5.014 (antibody, V domains shown, also called mAb14) VH: EVQLVESGGGLVQPGRSLRLSCAASGFTFDDYAMHWVRQAPGKGLEWVSGISWNSASMDYADSVKGRFTISRDNAKNSLYLQMNSLRAEDTALYYCAKDPAPPYCGGDCYPSFDYWGQGTLVTVSS VL: SYELTQPPSMSVAPGKTARITCGGNNIGSKSVHWYQQKPGQAPVLVIYYDSDRPSGIPERFSGSNSGNTATLTISRVEAGDEADYYCQVWDSSRDHVVFGGGTKLTVLG | no binding (tested: 1000 ng/mL mAb)
3 | R5.016 (antibody, V domains shown, also called mAb16) VH: QVQLVQSGAEVKKPGASVRVSCKASGYTFTSYGISWVRQAPGQGLEWMGWISGYDGNTNYAQKLQGRVTMTTDTSTSTAYMELRSLRSDDTAVYYCARDGPQVGDFDWQVYYYYGMDVWGQGTTVTVSS VL: AIRMTQSPSTLSASVGDRVTITCRASQSINTWLAWYQQKPGKAPNLLISKASSLESGVPSRFSGSGSGTEFTLTISSLQPDDFATYFCQQYNSYLYTFGQGTKVEIRR | no binding (tested: 1000 ng/mL mAb)
4 | R5.010 (antibody, V domains shown, also called mAb10) VH: EVQLVESGGGLVQPGGSLRLSCAASGFTFSSYWMSWVRQAPGKGLEWVANIKQDGSEKYYVDSVKGRFTISGDNAKNSLYLQMNSLRAEDTAVYYCARGASGYYYYNYGMDVWGQGTRVTVSS VL: QPVLTQPPSVSVAPGQTARITCGGNNIGIKSVHWYQQKPGQAPVLVVYDDSDRPSGIPERFSGSNSANTATLTISRVEAGDEADYFCQVWDSSSDHPGVFGGGTKLTVLG | no binding (tested: 1000 ng/mL mAb)
